From PMC4230784 (Molecular Biology of the Cell, 2014)

Target: flag-TBC1D9B, full length, wild type (human, UniProt Q66K14-1 1-1250)
Assay: co-IP

Chain of flag-TBC1D9B, full length, wild type (Q66K14 whole entry): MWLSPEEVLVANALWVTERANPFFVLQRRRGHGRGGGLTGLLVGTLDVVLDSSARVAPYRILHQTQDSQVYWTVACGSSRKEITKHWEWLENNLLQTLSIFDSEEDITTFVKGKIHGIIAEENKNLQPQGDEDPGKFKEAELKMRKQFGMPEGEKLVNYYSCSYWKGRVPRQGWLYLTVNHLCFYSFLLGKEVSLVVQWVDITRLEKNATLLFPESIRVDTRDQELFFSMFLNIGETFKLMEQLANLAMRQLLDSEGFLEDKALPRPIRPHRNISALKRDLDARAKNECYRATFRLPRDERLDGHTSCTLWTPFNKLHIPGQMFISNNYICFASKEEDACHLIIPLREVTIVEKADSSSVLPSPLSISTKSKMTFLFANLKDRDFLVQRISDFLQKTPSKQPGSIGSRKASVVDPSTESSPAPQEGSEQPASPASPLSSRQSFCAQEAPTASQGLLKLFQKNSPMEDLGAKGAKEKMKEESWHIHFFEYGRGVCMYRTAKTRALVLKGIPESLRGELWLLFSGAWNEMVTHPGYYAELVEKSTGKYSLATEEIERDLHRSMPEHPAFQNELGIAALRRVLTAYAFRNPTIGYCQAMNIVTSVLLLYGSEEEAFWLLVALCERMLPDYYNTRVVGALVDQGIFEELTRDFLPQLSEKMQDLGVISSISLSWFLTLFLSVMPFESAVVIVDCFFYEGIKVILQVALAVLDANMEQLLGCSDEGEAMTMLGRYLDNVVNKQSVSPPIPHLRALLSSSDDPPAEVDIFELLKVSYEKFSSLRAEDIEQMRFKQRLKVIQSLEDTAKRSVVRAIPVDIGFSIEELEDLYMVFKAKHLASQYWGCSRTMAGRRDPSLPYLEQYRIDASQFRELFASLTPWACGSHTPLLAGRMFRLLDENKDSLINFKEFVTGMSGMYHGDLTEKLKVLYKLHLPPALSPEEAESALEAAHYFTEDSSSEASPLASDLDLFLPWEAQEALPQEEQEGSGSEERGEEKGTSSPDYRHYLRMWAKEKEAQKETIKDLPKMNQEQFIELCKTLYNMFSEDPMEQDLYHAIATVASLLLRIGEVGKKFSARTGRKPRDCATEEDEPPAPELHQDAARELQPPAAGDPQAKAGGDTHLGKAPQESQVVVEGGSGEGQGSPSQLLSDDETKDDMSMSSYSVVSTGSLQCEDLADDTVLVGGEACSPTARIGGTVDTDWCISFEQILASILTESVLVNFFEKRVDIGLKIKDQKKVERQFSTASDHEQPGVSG

B1: GFP-Rab11aQ70L (natural protein, UniProt P62491 1-216, looked up)
chain: MGTRDDEYDYLFKVVLIGDSGVGKSNLLSRFTRNEFNLESKSTIGVEFATRSIQVDGKTIKAQIWDTAGLERYRAITSAYYRGAVGALLVYDIAKHLTYENVERWLKELRDHADSNIVIMLVGNKSDLRHLRAVPTDEARAFAEKNGLSFIETSALDSTNVEAAFQTILTEIYRIVSQKQMSDRRENDMSPSNNVVPIHVPPTTENKPKVQCCQNI
- fold coimmunoprecipitated against Rab11a-WT or Rab11a-SN: ~5 fold
